Measurements taken from patent publication US20230322958A1 (Genentech, published 2023).

T1: huNotch2-EGF6-10 (human, UniProt Q04721 219-418)
T1 construct: also called human Notch2 EGF6-10
T1 sequence: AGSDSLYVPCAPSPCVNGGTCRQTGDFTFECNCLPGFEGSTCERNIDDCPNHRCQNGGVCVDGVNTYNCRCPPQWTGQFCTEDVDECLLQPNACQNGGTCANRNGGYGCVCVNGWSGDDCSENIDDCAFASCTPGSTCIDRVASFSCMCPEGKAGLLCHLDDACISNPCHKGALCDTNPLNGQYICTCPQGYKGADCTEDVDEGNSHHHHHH


Key:
huNotch2-EGF6-10 [1] = target: T1, huNotch2-EGF6-10; experiment: SPR BIAcore, separate experiment, substantially as for Table 4
Procedure: (§1) The binding affinities of the antibodies was determined by BIAcore™ T200 machine. Rabbit antibodies were expressed as chimeric antibodies with rabbit variable domains and human constant domains. Rat antibodies were expressed as chimeric antibodies with rat variable domains and human constant regions. Humanized antibodies were expressed in the human IgG1 backbone. For kinetics measurements, antibodies were captured on research grade protein A chip (GE Healthcare) to achieve approximately 300 RU. Ten-fold serial dilutions of huNotch2-EGF6-10 were injected in HBS-P buffer with additional 3 mM CaCl₂ at 37° C. with a flow rate of 100 μL/min. Association rates (ka) and dissociation rates (kd) were calculated using a 1:1 Langmuir binding model (BIAcore™ T200 Evaluation Software version 2.0). The equilibrium dissociation constant (KD) was calculated as the ratio kd/ka.
In a separate experiment, the binding affinities of the humanized versions of the rat 3107 antibody were determined, substantially as described above.

[2] = target: human Notch2 on U-87 MG cells (human, UniProt Q04721 26-2471); experiment: cell-based or functional assay
human Notch2 on U-87 MG cells, sequence (Q04721 26-2471): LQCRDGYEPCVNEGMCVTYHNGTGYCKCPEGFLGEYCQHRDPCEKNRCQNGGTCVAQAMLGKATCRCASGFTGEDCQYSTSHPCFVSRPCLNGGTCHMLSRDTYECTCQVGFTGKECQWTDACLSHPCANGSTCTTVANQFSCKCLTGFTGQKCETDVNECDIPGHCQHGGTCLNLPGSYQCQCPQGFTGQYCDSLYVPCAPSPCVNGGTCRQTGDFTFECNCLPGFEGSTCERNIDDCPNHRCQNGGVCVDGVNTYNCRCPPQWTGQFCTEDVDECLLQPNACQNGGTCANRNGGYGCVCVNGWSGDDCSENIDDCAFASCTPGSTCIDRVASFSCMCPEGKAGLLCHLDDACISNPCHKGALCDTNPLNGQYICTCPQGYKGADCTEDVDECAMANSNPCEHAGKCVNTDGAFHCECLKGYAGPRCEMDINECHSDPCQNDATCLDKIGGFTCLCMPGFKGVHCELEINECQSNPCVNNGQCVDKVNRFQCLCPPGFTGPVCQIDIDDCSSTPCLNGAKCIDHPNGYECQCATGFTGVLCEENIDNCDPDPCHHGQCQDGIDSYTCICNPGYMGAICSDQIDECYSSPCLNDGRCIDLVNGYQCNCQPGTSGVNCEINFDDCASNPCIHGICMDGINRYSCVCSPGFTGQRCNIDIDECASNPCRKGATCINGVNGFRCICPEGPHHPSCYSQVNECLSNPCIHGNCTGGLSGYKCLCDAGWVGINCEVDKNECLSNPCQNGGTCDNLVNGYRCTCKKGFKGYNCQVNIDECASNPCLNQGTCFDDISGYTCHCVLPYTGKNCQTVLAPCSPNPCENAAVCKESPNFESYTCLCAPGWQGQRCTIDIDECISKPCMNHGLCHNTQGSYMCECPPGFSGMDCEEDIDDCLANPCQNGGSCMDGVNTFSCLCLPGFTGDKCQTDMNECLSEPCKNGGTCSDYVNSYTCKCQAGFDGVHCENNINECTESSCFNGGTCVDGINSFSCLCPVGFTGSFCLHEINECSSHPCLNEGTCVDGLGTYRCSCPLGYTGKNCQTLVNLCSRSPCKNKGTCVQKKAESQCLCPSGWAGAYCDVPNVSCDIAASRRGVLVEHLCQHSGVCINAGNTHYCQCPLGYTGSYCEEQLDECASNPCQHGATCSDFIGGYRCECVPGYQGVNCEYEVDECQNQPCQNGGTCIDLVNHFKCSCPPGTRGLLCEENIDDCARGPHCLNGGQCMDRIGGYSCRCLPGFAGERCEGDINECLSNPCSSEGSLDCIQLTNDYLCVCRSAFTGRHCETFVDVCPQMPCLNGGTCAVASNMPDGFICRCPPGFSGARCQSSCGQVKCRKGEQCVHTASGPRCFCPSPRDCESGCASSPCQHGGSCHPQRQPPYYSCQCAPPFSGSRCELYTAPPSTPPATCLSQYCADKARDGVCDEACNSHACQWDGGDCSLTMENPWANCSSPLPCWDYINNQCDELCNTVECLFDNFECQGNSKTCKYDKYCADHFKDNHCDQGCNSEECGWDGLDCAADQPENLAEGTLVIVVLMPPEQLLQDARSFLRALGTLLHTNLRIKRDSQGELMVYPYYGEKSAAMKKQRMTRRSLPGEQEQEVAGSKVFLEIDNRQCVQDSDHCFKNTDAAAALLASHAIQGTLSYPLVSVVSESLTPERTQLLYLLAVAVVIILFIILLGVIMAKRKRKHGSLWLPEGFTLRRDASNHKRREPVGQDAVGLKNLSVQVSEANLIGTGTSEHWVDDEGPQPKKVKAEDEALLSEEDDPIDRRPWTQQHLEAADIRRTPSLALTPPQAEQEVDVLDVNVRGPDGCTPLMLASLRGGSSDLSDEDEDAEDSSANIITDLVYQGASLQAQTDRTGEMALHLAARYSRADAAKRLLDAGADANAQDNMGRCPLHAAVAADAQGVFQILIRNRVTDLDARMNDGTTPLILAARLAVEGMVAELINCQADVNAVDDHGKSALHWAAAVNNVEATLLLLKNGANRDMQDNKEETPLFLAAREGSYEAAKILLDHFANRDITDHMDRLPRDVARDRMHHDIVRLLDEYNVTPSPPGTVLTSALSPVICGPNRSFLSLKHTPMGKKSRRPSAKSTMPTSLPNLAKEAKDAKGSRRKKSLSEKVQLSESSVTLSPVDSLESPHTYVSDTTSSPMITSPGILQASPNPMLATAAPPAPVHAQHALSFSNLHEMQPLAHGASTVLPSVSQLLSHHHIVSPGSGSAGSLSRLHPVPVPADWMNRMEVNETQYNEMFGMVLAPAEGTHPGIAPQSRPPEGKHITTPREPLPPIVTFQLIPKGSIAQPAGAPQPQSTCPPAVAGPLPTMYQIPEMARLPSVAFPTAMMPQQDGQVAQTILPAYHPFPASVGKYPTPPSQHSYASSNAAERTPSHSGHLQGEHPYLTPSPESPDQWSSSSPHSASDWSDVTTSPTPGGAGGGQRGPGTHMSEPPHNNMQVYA

huNotch2-EGF6-10 [3] = target: T1, huNotch2-EGF6-10; experiment: SPR BIAcore T200, antibody captured on protein A, 37 C
Procedure: as §1

Row | Kd (huNotch2-EGF6-10 [1]) [nM] | koff (huNotch2-EGF6-10 [1]) [s⁻¹] | kon (huNotch2-EGF6-10 [1]) [M⁻¹ s⁻¹] | Jagged1 IC50 [2] [nM] | Kd (huNotch2-EGF6-10 [3]) [nM] | koff (huNotch2-EGF6-10 [3]) [s⁻¹] | kon (huNotch2-EGF6-10 [3]) [M⁻¹ s⁻¹] | Binder
1 | 17.5 | 0.00631 | 360000 | 6.95 |  |  |  | hu.3107.L1H14 (antibody, V domains shown, also called hu.Notch-3107.L1H14) VH: EVQLVQSGAEVKKPGESLKISCKGSGYTFSNYVIHWVRQMPGKGPEWTGYIIPGSGGTKFNEKFKGQATISVDKSSTTAYLQWSSLKASDTAMYYCARDGAGSFTYWGQGTLVTVSS VL: DVVMTQSPLSLPVTLGQPASISCRSSQSLVHSDGNTYLHWFQQRPGQSPRLLIYRISNRFSGVPDRFSGSGSGTDFTLKISRVEAEDVGVYYCLQSTHFPDTFGGGTKVEIK
2 | 17.9 | 0.00634 | 355000 | 6.08 |  |  |  | hu.3107.L1H15 (antibody, V domains shown, also called hu.Notch-3107.L1H15) VH: EVQLVQSGAEVKKPGESLKISCKGSGYTFSNYVIHWVRQMPGKGPEWTGYIIPGSGGTKFNEKFKGQATISVDKSITTAYLQWSSLKASDTAMYYCARDGAGSFTYWGQGTLVTVSS VL: DVVMTQSPLSLPVTLGQPASISCRSSQSLVHSDGNTYLHWFQQRPGQSPRLLIYRISNRFSGVPDRFSGSGSGTDFTLKISRVEAEDVGVYYCLQSTHFPDTFGGGTKVEIK
3 |  |  |  |  | 9.94 | 0.00415 | 418000 | hu1B2.L7H10 (antibody, V domains shown, Human IgG1 backbone) VH: EVQLVESGGGLVQPGGSLKLSCAVSGFTFSDFYMEWVRQASGKGLEWVAASRNKANDFSIVYSASVKDRFTISRDDSKSTAYLQMNSLKTEDTAVYYCSRDSGRWGLDAWGQGTLVTVSS VL: DIQMTQSPSSVSASVGDRVTITCQTSEDIYSGLAWYQQKPGKSPKLLIYGASRLQDGVPSRFSGSGSGTDYTLTISSLQPEDFATYYCQQGFKYPLTFGGGTKVEIK
4 |  |  |  |  | 6.13 | 0.00134 | 219000 | hu1B2.L7H14 (antibody, V domains shown, Human IgG1 backbone; also called hu.1B2.DFS.H14L7) VH: EVQLVESGGGLVQPGGSLKLSCAVSGFTFSDFYMEWVRQASGKGLEWVAASRNKANDFSIVYSASVKDRFTISRDDSKSTLYLQMNSLKTEDTAVYYCSRDSGRWGLDAWGQGTLVTVSS VL: DIQMTQSPSSVSASVGDRVTITCQTSEDIYSGLAWYQQKPGKSPKLLIYGASRLQDGVPSRFSGSGSGTDYTLTISSLQPEDFATYYCQQGFKYPLTFGGGTKVEIK
5 | 9.79 | 0.00404 | 413000 | 4.71 |  |  |  | hu.3107.L6H12 (antibody, V domains shown, also called hu.Notch-3107.L6H12) VH: EVQLVQSGAEVKKPGASVKVSCKASGYTFSNYVIHWVRQAPGQGPEWTGYIIPGSGGTKFNEKFKGRATSTVDTSSTTAYMELSRLRSDDTVVYYCARDGAGSFTYWGQGTLVTVSS VL: DVVMTQSPDSLAVSLGERATINCRSSQSLVHSDGNTYLHWFQQKPGQPPKLLIYRISNRFSGVPDRFSGSGSGTDFTLTISSLQAEDVAVYYCLQSTHFPDTFGGGTKVEIK
6 | 9.54 | 0.00367 | 384000 | 11 |  |  |  | hu.3107.L7H12 (antibody, V domains shown, also called hu.Notch-3107.L7H12) VH: EVQLVQSGAEVKKPGASVKVSCKASGYTFSNYVIHWVRQAPGQGPEWTGYIIPGSGGTKFNEKFKGRATSTVDTSSTTAYMELSRLRSDDTVVYYCARDGAGSFTYWGQGTLVTVSS VL: DIVMTQSPDSLAVSLGERATINCRSSQSLVHSDGNTYLHWYQQKPGQPPKLLIYRISNRFSGVPDRFSGSGSGTDFTLTISSLQAEDVAVYYCLQSTHFPDTFGGGTKVEIK
7 | 9.47 | 0.00424 | 448000 | 6.42 |  |  |  | hu.3107.L6H13 (antibody, V domains shown, also called hu.Notch-3107.L6H13) VH: EVQLVQSGAEVKKPGASVKVSCKASGYTFSNYVIHWVRQAPGQGPEWTGYIIPGSGGTKFNEKFKGRATSTVDTSITTAYMELSRLRSDDTVVYYCARDGAGSFTYWGQGTLVTVSS VL: DVVMTQSPDSLAVSLGERATINCRSSQSLVHSDGNTYLHWFQQKPGQPPKLLIYRISNRFSGVPDRFSGSGSGTDFTLTISSLQAEDVAVYYCLQSTHFPDTFGGGTKVEIK
